Data from article PMC5809530, “Resculpting the binding pocket of APC superfamily LeuT-fold amino acid transporters” (Cellular and Molecular Life Sciences: CMLS, 2017).

Key:
[1] = substrate: N[C@@H](CO)C(=O)O; test: cells, lysate or membranes; settings: transport Km, Na+-free, pH 5.5, about 22 °C, labelled compound, 0.01-20 mM serine
[2] = substrate: O=C(O)[C@@H]1CCCN1; test: cells, lysate or membranes; settings: transport Km, Na+-free, pH 5.5, about 22 °C, labelled compound, a second Km was measured by TEVC at -60 mV

Row | Protein | Km [1] | Km [2]
1 | CG1139 (Drosophila melanogaster) (protein) MNDDIKTVTVYPTTLELTTPTKSANGSNDDYDPHQHRELKNPTTNFQTFAHFLKASVGTGVLAMPSAFAHAGYVNGTLLTLIIGSLALYCLHILIKCMYILCKRQRVPYVSFSQAMNLGLKQGPPWLRCLAPIAVPFVDGFLAFYHFGICCVYVVFIAESIKQLVDEYLVVWDVRIHMCIIIVPLLLIYSIKNLKLLAPFSSAANLLLLVGFGIILYYIFEELPPLSERDPFVAAGKLPTFFGTVLFALEAVGVILAIEENMATPKSFVGPCGILNSGMSIVLGLYVLLGFFGYWKYGNESEGSITLNIPQSEIPAQVVKVFFAITTWISYALQGYVTAHILWDKYLAKRFKETRQTFYELIFRAIIVLLTFGCAVAIPDLSVFLSLVGSFCLSILGLIFPVLLQICVQYTEGYGPFRIKLIINLLLLCFGIFGGVVGTYVSILDIIAVYK | 1.31 ± 0.12 mM | 1.03 ± 0.18 mM
2 | PAT2 (SLC36A2) (Rattus norvegicus; F159I) (protein) MSVTKSAGSPQVAATVKLDLVSFPESAKKVQSQDPNPVNGSSSESSEKTKGITGFQTLVHLVKGNMGTGILGLPLAVKNAGILMGPLSLLVMGLIACHCMHILVRCAQRFCHRLNKPFMDYGDTVMHGLASSPNTWLQSHAHWGRHAVSFFLIVTQLGICCVYIVFLADNLKQVVEAVNSTTISCHKNETVVLTPTIDSRLYMLAFLPVLGLLVFIRNLRVLTIFSLLANVSMLVSLVIIGQYIIQGIPDPSQLPLVASWKTYPLFFGTAIFSFESIGVVLPLENKMKDARRFPTILSLGMSIITTLYIAIGALGYLRFGDDIKASITLNLPNCWLYQSVKLLYVVGILCTHALQFYVPAEIIIPLAVSQVSKRWALPVDLSIRLALVCVTCMLAILIPRLDLVLSLVGSVSSSALALIIPPLLEVTTYYGEGMSPLTITKDALISILGFMGFVVGTYQALDELIRSGNSLPLSNSTMFIQ | 0.823 ± 0.202 mM | –
